Where only a bound is given, the exact number is not on record here.

The target of this data set is T1, CasEnd-37 (synthetic construct).
T1 chain: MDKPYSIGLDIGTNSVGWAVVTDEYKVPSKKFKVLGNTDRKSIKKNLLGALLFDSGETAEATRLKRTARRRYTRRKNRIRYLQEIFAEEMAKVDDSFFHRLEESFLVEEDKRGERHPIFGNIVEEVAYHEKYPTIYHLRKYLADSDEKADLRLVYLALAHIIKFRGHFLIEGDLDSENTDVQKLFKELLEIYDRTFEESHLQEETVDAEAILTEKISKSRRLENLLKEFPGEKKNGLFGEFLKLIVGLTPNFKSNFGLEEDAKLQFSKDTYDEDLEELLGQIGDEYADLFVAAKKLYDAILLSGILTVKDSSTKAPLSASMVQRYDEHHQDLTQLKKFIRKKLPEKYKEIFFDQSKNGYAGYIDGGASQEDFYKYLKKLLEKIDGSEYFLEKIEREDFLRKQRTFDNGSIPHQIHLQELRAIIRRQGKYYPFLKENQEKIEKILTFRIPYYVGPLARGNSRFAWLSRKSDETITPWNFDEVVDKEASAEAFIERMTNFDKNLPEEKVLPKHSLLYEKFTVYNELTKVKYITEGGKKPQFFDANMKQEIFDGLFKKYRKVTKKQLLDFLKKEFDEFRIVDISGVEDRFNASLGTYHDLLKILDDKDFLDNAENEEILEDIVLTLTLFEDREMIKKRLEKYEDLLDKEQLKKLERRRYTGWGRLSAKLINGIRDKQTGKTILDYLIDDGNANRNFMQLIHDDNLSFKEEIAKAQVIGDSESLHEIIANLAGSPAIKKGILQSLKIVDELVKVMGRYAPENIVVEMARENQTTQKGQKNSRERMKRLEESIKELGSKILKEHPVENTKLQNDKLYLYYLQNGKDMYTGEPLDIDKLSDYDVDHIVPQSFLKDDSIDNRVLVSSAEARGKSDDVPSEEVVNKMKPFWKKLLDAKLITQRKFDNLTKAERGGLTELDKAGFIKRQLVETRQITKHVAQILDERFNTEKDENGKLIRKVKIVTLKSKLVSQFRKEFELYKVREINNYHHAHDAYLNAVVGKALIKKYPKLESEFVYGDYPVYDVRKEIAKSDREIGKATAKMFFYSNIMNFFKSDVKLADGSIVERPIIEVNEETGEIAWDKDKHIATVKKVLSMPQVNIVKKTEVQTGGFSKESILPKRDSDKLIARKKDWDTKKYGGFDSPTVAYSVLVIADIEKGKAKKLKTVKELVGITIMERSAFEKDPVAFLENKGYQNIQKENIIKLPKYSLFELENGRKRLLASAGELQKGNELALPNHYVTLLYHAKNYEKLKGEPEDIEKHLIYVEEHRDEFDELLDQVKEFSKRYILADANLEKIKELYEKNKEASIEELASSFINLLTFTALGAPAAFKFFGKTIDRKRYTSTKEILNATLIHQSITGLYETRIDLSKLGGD
Kind of data set: cell_activity; +++; HEK293T; PAM not stated. The procedure, abridged: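 BFP-to-GFP conversion via reverse transcriptase fusion with each Cas endonuclease plus template RNA: 200 ng of each plasmid nucleofected into 250,000 BFP-expressing HEK293T cells (program DS-150). Percent GFP+ cells by flow cytometry at day 4 measured editing.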

B1: BFP-to-GFP template RNA ; BFP reporter protospacer (ssRNA ; dsDNA)
RNA: GCCGAAGCACUGCACGCCGUGUUUUAGAGCUAGAAAUAGCAAGUUAAAAUAAGGCUAGUCCGUUAUCAACUUGAAAAAGUGGCACCGAGUCGGUGCACCCUGACGUACGGCGUGCAGUGCUU
DNA 1: GCCGAAGCACTGCACGCCGT
DNA 2: ACGGCGTGCAGTGCTTCGGC
For the molecule B1, the activity was ≥ 100 % of reference.

The values above are taken from patent publication US20250092426, “CAS ENDONUCLEASES AND RELATED METHODS” (Flagship Pioneering Innovations VII, LLC, published 2025).
